From patent US8389575B2, “Control of enzymatic peracid generation” (E.I. du Pont de Nemours and Company, priority 2008, dated 2013)

B1: Thermotoga neapolitana perhydrolase: acetyl xylan esterase with perhydrolase activity from Thermotoga neapolitana (SEQ ID NO: 14), cell extract of E. coli KLP18/pSW196 (protein, listed as Thermotoga neapolitana)
chain: MAFFDMPLEELKKYRPERYEEKDFDEFWRETLKESEGFPLDPVFEKVDFHLKTVETYDVTFSGYRGQRIKGWLLVPKLAEEKLPCVVQYIGYNGGRGFPHDWLFWPSMGYICFVMDTRGQGSGWMKGDTPDYPEGPVDPQYPGFMTRGILDPGTYYYRRVFVDAVRAVEAAISFPRVDSRKVVVAGGSQGGGIALAVSALSNRVKALLCDVPFLCHFRRAVQLVDTHPYVEITNFLKTHRDKEEIVFRTLSYFDGVNFAARAKVPALFSVGLMDTICPPSTVFAAYNHYAGPKEIRIYPYNNHEGGGSFQAIEQVKFLKRLFEEG
B2: Thermotoga maritima MSB8 perhydrolase: acetyl xylan esterase with perhydrolase activity from Thermotoga maritima MSB8 (SEQ ID NO: 16), cell extract of E. coli KLP18/pSW207 (protein, listed as Thermotoga maritima)
chain: MAFFDLPLEELKKYRPERYEEKDFDEFWEETLAESEKFPLDPVFERMESHLKTVEAYDVTFSGYRGQRIKGWLLVPKLEEEKLPCVVQYIGYNGGRGFPHDWLFWPSMGYICFVMDTRGQGSGWLKGDTPDYPEGPVDPQYPGFMTRGILDPRTYYYRRVFTDAVRAVEAAASFPQVDQERIVIAGGSQGGGIALAVSALSKKAKALLCDVPFLCHFRRAVQLVDTHPYAEITNFLKTHRDKEEIVFRTLSYFDGVNFAARAKIPALFSVGLMDNICPPSTVFAAYNYYAGPKEIRIYPYNNHEGGGSFQAVEQVKFLKKLFEKG

Experiments:
[1] = Peracetic acid production by perhydrolases, control by initial reaction pH in sodium citrate buffer; assay type: biochemical; conditions: triacetin 100 mM, 0.050 mg/mL extract total protein, 25° C.
Procedure: A cell extract of a transformant expressing perhydrolase from Bacillus pumilus PS213 (KLP18/pSW195), Thermotoga maritima MSB8 (KLP18/pSW207), Thermotoga neapolitana (KLP18/pSW196), or Bacillus subtilis ATCC® 31954™ (KLP18/pSW194) was prepared by passing a suspension of cell paste (20 wt % wet cell weight) in 0.05 M potassium phosphate buffer (pH 7.0) containing dithiothreitol (1 mM) twice through a French press having a working pressure of 16,000 psi (˜110 MPa). The crude extract was then centrifuged at 20,000×g to remove cellular debris, producing a clarified cell extract that was assayed for total soluble protein (Bicinchoninic Acid Kit for Protein Determination, Sigma Aldrich catalog #BCA1-KT). The supernatant was frozen in dry ice and stored at −80° C.
Reactions (10 mL total volume) containing triacetin, hydrogen peroxide and centrifuged cell extract supernatant (prepared as described above) in 50 mM sodium citrate buffer (initial pH 7.2 or 6.5) were run at 25° C. A control reaction for each reaction condition was run to determine the concentration of peracetic acid produced by chemical perhydrolysis of triacetin by hydrogen peroxide in the absence of added extract protein (data not shown). Determination of the concentration of peracetic acid in the reaction mixtures was performed according to the method described by Karst et al., supra.

[2] = Dependence of specific activity on pH for hydrolysis of triacetin by CE-7 esterases/perhydrolases (cell extracts of E. coli KLP18 transformants); assay type: biochemical; conditions: 200 mM triacetin, 25° C.
Procedure: A cell extract of an E. coli transformant expressing perhydrolase from Thermotoga neapolitana (KLP18/pSW196), Thermotoga maritima MSB8 (KLP18/pSW207), Bacillus pumilus PS213 (KLP1S/pSW195), Bacillus subtilis BE1010 (KLP18/pSW189), Bacillus subtilis ATCC® 31954™ (KLP18/pSW194), or Bacillus licheniformis ATCC® 14580™ (KLP18/pSW191) was prepared by passing a suspension of cell paste (20 wt % wet cell weight) in 0.05 M potassium phosphate buffer (pH 7.0) containing dithiothreitol (1 mM) twice through a French press having a working pressure of 16,000 psi (˜110 MPa). The crude extract was then centrifuged at 20,000×g to remove cellular debris, producing a clarified cell extract that was assayed for total soluble protein (Bicinchoninic Acid Kit for Protein Determination, Sigma Aldrich catalog #BCA1-KT). A portion of the clarified Thermotoga maritima MSB8 or Thermotoga neapolitana perhydrolase-containing extract was additionally heated for 20 min at 75° C., followed immediately by cooling in an ice/water bath to 5° C. The resulting mixture was centrifuged to remove precipitated protein, and the supernatant collected and assayed for total soluble protein as before.
Reactions (10 mL total volume) containing triacetin (200 mM) and cell extract supernatant (prepared as described above) were run at 25° C. and at a pH between 4.5 and 10.0, using the buffers and buffer concentrations listed in Table 5. The concentration of extract total protein (with or without heat-treatment to denature and precipitate E. coli-derived protein) was chosen to produce an ca. 50 mM decrease in triacetin concentration over 30 min (typically from 0.025 mg/mL to 0.40 mg/mL of total extract protein, dependent on the perhydrolase). A control reaction for each reaction condition was run to determine the concentration of triacetin hydrolyzed in the absence of added extract protein. Samples (100 μL) were removed at predetermined times and immediately added to 297 μL of dd H2O and 3 μL of 6N HCL. The resulting solution was mixed, then filtered using a 30,000 NMWL filter (Millipore) using a microcentrifuge for 2 min at 12,000 rpm. An aliquot of the filtrate (100 μL) was added to 150 μL of 0.417 mM N,N-diethyl meta-toluamide (external standard) in acetonitrile, and the resulting solution analyzed for triacetin by HPLC using a Supelco Discovery C8 column (25 cm×4.0 mm, 5 um; Supelco #59353-U40) and an isocratic mobile phase of 40% acetonitrile/60% distilled water at a flow rate of 1 mL/min. Triacetin was measured by UV detection at 225 nm.

[3] = initial pH 6.5, sodium citrate 50 mM, H2O2 100 mM
[4] = initial pH 6.5, sodium citrate 50 mM, H2O2 250 mM
[5] = initial pH 7.2, sodium citrate 50 mM, H2O2 100 mM
[6] = initial pH 7.2, sodium citrate 50 mM, H2O2 250 mM
[7] = pH 7.0, potassium phosphate 0.15 M
[8] = pH 7.5, potassium phosphate 0.15 M
[9] = pH 8.0, potassium phosphate 0.20 M
[10] = pH 8.5, Tris(hydroxymethyl)aminomethane 0.20 M
[11] = pH 9.0, Tris(hydroxymethyl)aminomethane 0.20 M

| Molecule | PAA, 1 min (ppm) [1, 3] [ppm] | PAA, 5 min (ppm) [1, 3] [ppm] | PAA, 30 min (ppm) [1, 3] [ppm] | PAA, 1 min (ppm) [1, 4] [ppm] | PAA, 5 min (ppm) [1, 4] [ppm] | PAA, 30 min (ppm) [1, 4] [ppm] | PAA, 1 min (ppm) [1, 5] [ppm] | PAA, 5 min (ppm) [1, 5] [ppm] | PAA, 30 min (ppm) [1, 5] [ppm] | PAA, 1 min (ppm) [1, 6] [ppm] | PAA, 5 min (ppm) [1, 6] [ppm] | PAA, 30 min (ppm) [1, 6] [ppm] | specific activity (mmol triacetin/min/mg total extract protein) ([2]; pH 5.5, sodium acetate 0.15 M) | specific activity (mmol triacetin/min/mg total extract protein) ([2]; pH 6.0, sodium citrate 0.15 M) | specific activity (mmol triacetin/min/mg total extract protein) ([2]; pH 6.5, sodium citrate 0.15 M) | specific activity (mmol triacetin/min/mg total extract protein) [2, 7] | specific activity (mmol triacetin/min/mg total extract protein) [2, 8] | specific activity (mmol triacetin/min/mg total extract protein) [2, 9] | specific activity (mmol triacetin/min/mg total extract protein) [2, 10] | specific activity (mmol triacetin/min/mg total extract protein) [2, 11] | also measured |
| --- | --- | --- | --- | --- | --- | --- | --- | --- | --- | --- | --- | --- | --- | --- | --- | --- | --- | --- | --- | --- | --- |
| B1 | 221 | 607 | 1925 | 434 | 1260 | 2016 | 798 | 1748 | 2500 | 1790 | 2860 | 3820 | 0 mmol triacetin/min/mg total extract protein | 0.4 mmol triacetin/min/mg total extract protein | 1.7 mmol triacetin/min/mg total extract protein | 3.3 mmol triacetin/min/mg total extract protein | 5.3 mmol triacetin/min/mg total extract protein | 5.8 mmol triacetin/min/mg total extract protein | 11.3 mmol triacetin/min/mg total extract protein | 12.5 mmol triacetin/min/mg total extract protein | specific activity (mmol triacetin/min/mg total extract protein) ([2]; pH 9.5, glycine 0.20 M): 12.0 mmol triacetin/min/mg total extract protein; specific activity (mmol triacetin/min/mg total extract protein) ([2]; pH 10.0, glycine 0.20 M): 0 mmol triacetin/min/mg total extract protein |
| B2 | 53 | 279 | 1540 | 95 | 742 | 2446 | 210 | 610 | 1995 | 635 | 1725 | 3565 | 1.4 mmol triacetin/min/mg total extract protein | 4.3 mmol triacetin/min/mg total extract protein | 10.3 mmol triacetin/min/mg total extract protein | 16.0 mmol triacetin/min/mg total extract protein | 19.8 mmol triacetin/min/mg total extract protein | 28.7 mmol triacetin/min/mg total extract protein | 38.8 mmol triacetin/min/mg total extract protein | 57.1 mmol triacetin/min/mg total extract protein | specific activity (mmol triacetin/min/mg total extract protein) ([2]; pH 9.5, glycine 0.20 M): 21.6 mmol triacetin/min/mg total extract protein |
